Reference: patent publication US20220033462A1 (ALLOGENE THERAPEUTICS, published 2022)

T1: recombinant human CD19-mouse IgG Fc fusion protein (human; mouse, UniProt P15391 20-291, limits assumed)
T1 construct: Staining reagent; not shown: mouse IgG Fc
T1 sequence (looked up): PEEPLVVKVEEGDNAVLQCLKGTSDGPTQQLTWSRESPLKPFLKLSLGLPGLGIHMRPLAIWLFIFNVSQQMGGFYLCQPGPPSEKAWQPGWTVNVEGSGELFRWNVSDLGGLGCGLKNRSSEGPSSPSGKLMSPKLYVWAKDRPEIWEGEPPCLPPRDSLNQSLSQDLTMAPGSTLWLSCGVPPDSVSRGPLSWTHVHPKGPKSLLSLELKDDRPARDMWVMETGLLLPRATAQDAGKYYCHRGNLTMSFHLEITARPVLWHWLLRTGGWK

B1: N-CAR PD1-CTLA4 (SEQ ID No 1999 with intracellular domain SEQ ID No 2003) (other)
chain: EVQLQQSGPELVKPGTSVRISCKTSGYTFTEYTIHWVKQSHGKSLEWIGNINPNNGGTTYNQKFEDKATLTVDKSSSTAYMELRSLTSEDSAVYYCAAGWNFDYWGQGTTVTVSSGGGGSGGGGSGGGGSDIVMTQSHKFMSTSVGDRVSIICKASQDVGTAVDWYQQKPGQSPKLLIYWASTRHTGVPDRFTGSGSGTDFTLTITNVQSEDLADYFCQQYNSYPLTFGAGTMLDLKRAAATERRAEVPTAHPSPSPRPAGQFQTLVVGVVGGLLGSLVLLVWVLAVICSRAARGTIGARRTGQPLKEDPSAVPVFSVDYGELDFQWREKTPEPPVPCVPEQTEYATIVFPSGMGTSSPARRGSADGPRSAQPLRPEDGHCSWPLAVSLSKMLKKRSPLTTGVYVKMPPTEPECEKQFQPYFIPIN
B2: P-CAR2 (SEQ ID No 2020) (other)
chain: EVKLQQSGAELVRPGSSVKISCKASGYAFSSYWMNWVKQRPGQGLEWIGQIYPGDGDTNYNGKFKGQATLTADKSSSTAYMQLSGLTSEDSAVYFCARKTISSVVDFYFDYWGQGTTVTVSSGGGGSGGGGSGGGGSDIELTQSPKFMSTSVGDRVSVTCKASQNVGTNVAWYQQKPGQSPKPLIYSATYRNSGVPDRFTGSGSGTDFTLTITNVQSKDLADYFCQQYNRYPYTSGGGTKLEIKRAAAIEVMYPPPYLDNEKSNGTIIHVKGKHLCPSPLFPGPSKPFWVLVVVGGVLACYSLLVTVAFIIFWVRSKRSRLLHSDYMNMTPRRPGPTRKHYQPYAPPRDFAAYRSRVKFSRSADAPAYQQGQNQLYNELNLGRREEYDVLDKRRGRDPEMGGKPRRKNPQEGLYNELQKDKMAEAYSEIGMKGERRRGKGHDGLYQGLSTATKDTYDALHMQALPPR
notes: Chimeric antigen receptor on the surface of transduced reporter Jurkat cells; also called positive signaling CAR with scFv from anti-CD19 antibody SJ25C1
B3: N-CAR CD244 (SEQ ID No 1999 with intracellular domain SEQ ID No 2002) (other)
chain: EVQLQQSGPELVKPGTSVRISCKTSGYTFTEYTIHWVKQSHGKSLEWIGNINPNNGGTTYNQKFEDKATLTVDKSSSTAYMELRSLTSEDSAVYYCAAGWNFDYWGQGTTVTVSSGGGGSGGGGSGGGGSDIVMTQSHKFMSTSVGDRVSIICKASQDVGTAVDWYQQKPGQSPKLLIYWASTRHTGVPDRFTGSGSGTDFTLTITNVQSEDLADYFCQQYNSYPLTFGAGTMLDLKRAAATERRAEVPTAHPSPSPRPAGQFQTLVVGVVGGLLGSLVLLVWVLAVIWRRKRKEKQSETSPKEFLTIYEDVKDLKTRRNHEQEQTFPGGGSTIYSMIQSQSSAPTSQEPAYTLYSLIQPSRKSGSRKRNHSPSFNSTIYEVIGKSQPKAQNPARLSRKELENFDVYS
B4: N-CAR BTLA (SEQ ID No 1999 with intracellular domain SEQ ID No 2001) (other)
chain: EVQLQQSGPELVKPGTSVRISCKTSGYTFTEYTIHWVKQSHGKSLEWIGNINPNNGGTTYNQKFEDKATLTVDKSSSTAYMELRSLTSEDSAVYYCAAGWNFDYWGQGTTVTVSSGGGGSGGGGSGGGGSDIVMTQSHKFMSTSVGDRVSIICKASQDVGTAVDWYQQKPGQSPKLLIYWASTRHTGVPDRFTGSGSGTDFTLTITNVQSEDLADYFCQQYNSYPLTFGAGTMLDLKRAAATERRAEVPTAHPSPSPRPAGQFQTLVVGVVGGLLGSLVLLVWVLAVIRRHQGKQNELSDTAGREINLVDAHLKSEQTEASTRQNSQVLLSETGIYDNDPDLCFRMQEGSEVYSNPCLEENKPGIVYASLNHSVIGPNSRLARNVKEAPTEYASICVRS
B5: N-CAR PD1-LAG3 (SEQ ID No 1999 with intracellular domain SEQ ID No 2004) (other)
chain: EVQLQQSGPELVKPGTSVRISCKTSGYTFTEYTIHWVKQSHGKSLEWIGNINPNNGGTTYNQKFEDKATLTVDKSSSTAYMELRSLTSEDSAVYYCAAGWNFDYWGQGTTVTVSSGGGGSGGGGSGGGGSDIVMTQSHKFMSTSVGDRVSIICKASQDVGTAVDWYQQKPGQSPKLLIYWASTRHTGVPDRFTGSGSGTDFTLTITNVQSEDLADYFCQQYNSYPLTFGAGTMLDLKRAAATERRAEVPTAHPSPSPRPAGQFQTLVVGVVGGLLGSLVLLVWVLAVICSRAARGTIGARRTGQPLKEDPSAVPVFSVDYGELDFQWREKTPEPPVPCVPEQTEYATIVFPSGMGTSSPARRGSADGPRSAQPLRPEDGHCSWPLHLWRRQWRPRRFSALEQGIHPPQAQSKIEELEQEPEPEPEPEPEPEPEPEPEQL

How the values were obtained:
[1] = biological target: T2, biotinylated recombinant human PSMA-human IgG1 Fc fusion protein (human, UniProt Q04609 44-750, biotinylated (sites not given)); experiment: flow cytometry, reporter Jurkat cells co-expressing P-CAR2 (FIGS. 6-9)
T2 construct: Staining reagent; not shown: human IgG1 Fc
T2 sequence (Q04609 44-750 limits assumed): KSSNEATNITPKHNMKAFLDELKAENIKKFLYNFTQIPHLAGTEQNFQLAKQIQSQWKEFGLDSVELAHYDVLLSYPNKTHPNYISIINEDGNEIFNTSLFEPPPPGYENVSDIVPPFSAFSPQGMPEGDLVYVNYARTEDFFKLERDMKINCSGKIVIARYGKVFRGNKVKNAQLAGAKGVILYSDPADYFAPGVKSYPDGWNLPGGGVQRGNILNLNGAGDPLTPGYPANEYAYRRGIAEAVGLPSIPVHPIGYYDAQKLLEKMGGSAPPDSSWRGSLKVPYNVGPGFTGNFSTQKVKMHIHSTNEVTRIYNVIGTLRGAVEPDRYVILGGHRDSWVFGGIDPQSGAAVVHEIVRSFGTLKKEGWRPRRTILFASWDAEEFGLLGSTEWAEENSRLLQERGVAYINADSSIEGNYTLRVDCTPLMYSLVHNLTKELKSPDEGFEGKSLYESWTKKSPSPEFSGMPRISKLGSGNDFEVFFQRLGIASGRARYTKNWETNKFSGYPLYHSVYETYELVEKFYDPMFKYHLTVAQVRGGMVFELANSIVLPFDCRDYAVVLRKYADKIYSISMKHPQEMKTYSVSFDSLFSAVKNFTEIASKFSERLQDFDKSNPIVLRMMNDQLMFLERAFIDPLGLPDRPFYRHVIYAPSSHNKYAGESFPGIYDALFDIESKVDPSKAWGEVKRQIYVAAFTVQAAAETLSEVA

[2] = biological target: T1, recombinant human CD19-mouse IgG Fc …; experiment: flow cytometry, NFAT-/NFkB-luciferase reporter Jurkat cells expressing P-CAR2 (FIGS. 6-9)

| Binder | binding result [1] | binding result [2] |
| --- | --- | --- |
| B1 | binds |  |
| B2 |  | binds |
| B3 | binds |  |
| B4 | binds |  |
| B5 | binds |  |
